Reference: patent US20180369203

Target: GST-tagged active human MEK1, Q02750

B1: GST-tagged inactive human ERK1 (protein)
chain: MAAAAAQGGGGGEPRRTEGVGPGVPGEVEMVKGQPFDVGPRYTQLQYIGEGAYGMVSSAYDHVRKTRVAIKKISPFEHQTYCQRTLREIQILLRFRHENVIGIRDILRASTLEAMRDVYIVQDLMETDLYKLLKSQQLSNDHICYFLYQILRGLKYIHSANVLHRDLKPSNLLINTTCDLKICDFGLARIADPEHDHTGFLTEYVATRWYRAPEIMLNSKGYTKSIDIWSVGCILAEMLSNRPIFPGKHYLDQLNHILGILGSPSQEDLNCIINMKARNYLQSLPSKTKVAWAKLFPKSDSKALDLLDRMLTFNPNKRITVEEALAHPYLEQYYDPTDEPVAEEPFTFAMELDDLPKERLKELIFQETARFQPGVLEAP
  in vitro HSF1 Ser326 phosphorylation by GST-MEK1 in the presence of inactive GST-ERK1, detected by immunoblotting: recombinant ERK1 proteins impeded in vitro HSF1 Ser326 phosphorylation by recombinant MEK1 proteins
